Measurements from US20230302148A1, “PHARMACEUTICAL COMPOSITION COMPRISING LONG-ACTING CONJUGATE OF TRIPLE GLUCAGON/GLP-1/GIP RECEPTOR AGONIST” (HANMI PHARM. CO., LTD., priority 2020, published 2023).
Bridges are numbered along the chain shown (N, C = ends). Where no end group is shown, it is not given here. [ ]: non-standard residue; d: D form. Aib = CC(C)(N)C(=O)O

T1: human GIP receptor (human, UniProt P48546 22-466)
T1 sequence (looked up): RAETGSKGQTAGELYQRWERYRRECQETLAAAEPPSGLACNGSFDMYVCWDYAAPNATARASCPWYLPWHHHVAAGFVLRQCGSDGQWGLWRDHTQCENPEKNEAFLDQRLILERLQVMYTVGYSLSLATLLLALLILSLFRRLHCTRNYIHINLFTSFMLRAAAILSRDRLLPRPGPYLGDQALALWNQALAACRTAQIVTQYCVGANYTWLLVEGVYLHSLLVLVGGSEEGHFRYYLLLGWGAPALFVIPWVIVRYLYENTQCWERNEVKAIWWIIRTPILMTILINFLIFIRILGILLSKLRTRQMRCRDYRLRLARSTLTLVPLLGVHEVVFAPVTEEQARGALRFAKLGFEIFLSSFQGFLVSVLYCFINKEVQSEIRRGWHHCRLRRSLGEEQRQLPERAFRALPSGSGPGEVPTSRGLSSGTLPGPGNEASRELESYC


Assays:
[1] = FIGURE 5
Description: Table printed on a drawing sheet, FIGURE 5

[2] = FIGURE 13
Description: Table printed on a drawing sheet, FIGURE 13
W1 means Week 1 and W12 means Week 12.
First reader's note: The first row gives the substance together with its dose (mg/kg), and each result cell holds the value with its ± deviation in the same cell.

[3] = biological target: T1, human GIP receptor; assay: cell-based or functional assay
[4] = biological target: human GCG receptor (human, UniProt P47871 26-477); assay: cell-based or functional assay
[5] = biological target: human GLP-1 receptor (human, UniProt P43220 24-463); assay: cell-based or functional assay

human GCG receptor, sequence (P47871 26-477): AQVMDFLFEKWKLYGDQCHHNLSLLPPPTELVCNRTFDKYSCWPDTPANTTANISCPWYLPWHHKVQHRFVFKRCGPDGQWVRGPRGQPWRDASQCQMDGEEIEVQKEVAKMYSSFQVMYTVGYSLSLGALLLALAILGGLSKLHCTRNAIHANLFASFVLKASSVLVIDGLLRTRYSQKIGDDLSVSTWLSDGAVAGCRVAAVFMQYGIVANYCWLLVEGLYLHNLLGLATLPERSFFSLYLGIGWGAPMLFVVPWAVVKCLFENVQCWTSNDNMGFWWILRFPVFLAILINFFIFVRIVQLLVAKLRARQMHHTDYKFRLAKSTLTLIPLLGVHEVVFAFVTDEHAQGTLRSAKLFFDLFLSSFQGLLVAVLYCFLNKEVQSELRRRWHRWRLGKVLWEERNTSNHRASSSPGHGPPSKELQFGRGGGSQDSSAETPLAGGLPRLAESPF

| Molecule | Tmax [2] [h] | In vitro activity relative to native peptide (%) vs. GIP [3] [%] | In vitro activity relative to native peptide (%) vs. Glucagon [4] [%] | In vitro activity relative to native peptide (%) vs. GLP-1 [5] [%] | further results |
| --- | --- | --- | --- | --- | --- |
| LONG-ACTING CONJUGATE OF SEQ ID NO: 42 0.01 mg/kg (N=5) (Y[Aib]QGTFTSDYSKYLDEKRAKEFVQWLLDHHPSSGQPPPSC; lactam 16-20; not fully specified (residue 40); also: long-acting carrier conjugate) | – | – | – | – | Dose-normalized Cmax (ng/mL/mg) [1]: 30.73 (13.34) ng/mL/mg; Tmax (hr) [1]: 31.20 (10.733) hr |
| LONG-ACTING CONJUGATE OF SEQ ID NO: 42 0.01 mg/kg (Y[Aib]QGTFTSDYSKYLDEKRAKEFVQWLLDHHPSSGQPPPSC; lactam 16-20; not fully specified (residue 40); also: long-acting carrier conjugate) | 48.00 ± 12.00 | – | – | – | Cmax [2]: 31.22 ± 13.47 ng/mL |
| LONG-ACTING CONJUGATE OF SEQ ID NO: 42 0.02 mg/kg (Y[Aib]QGTFTSDYSKYLDEKRAKEFVQWLLDHHPSSGQPPPSC; lactam 16-20; not fully specified (residue 40); also: long-acting carrier conjugate) | 48.00 ± 22.22 | – | – | – | AUC0-168h [2]: 11770.3 ± 7192.4 ng·h/mL |
| H[Aib]QGTFTSDYSKYLDEKACKEFVQWLLAQ (bridge 16-20) [triple agonist of SEQ ID NO: 31] | – | 2.4 | 2.2 | 135 | – |
| H[Aib]QGTFTSDYSKYLDEKACKDFVQWLLDGGPSSGAPPPS (bridge 16-20) [triple agonist of SEQ ID NO: 32] | – | 8.8 | 1.7 | 151 | – |
| H[Aib]QGTFTSDYSIAMDEIHQKDFVNWLLAQKC (bridge 16-20) [triple agonist of SEQ ID NO: 33] | – | 10.4 | < 0.1 | 24.5 | – |
